The nature of data set [1]: SEC; ConSOSL.UFO.664 from concentrated 293T.17 supernatant, in PBS, Enrich SEC 650 column; oligomeric state of the gp140. Background: Size exclusion chromatography separates by hydrodynamic size, large species first.
Data set [2] addresses ConSOSL.UFO.664 gp140 (HIV-1 (group M consensus, ConS)). Described as above.

For orientation: stoichiometry N means a count of units in the complex or per binding partner. Turning to ConSOSL.UFO.664 gp140, in data set [1], the “share of the trimer peak in the SEC profile” value was “trimer peak ∼54%”. Further, the stoichiometry N in data set [2] is 3.

For the origin of these results see paper PMC6167709.
